Source: paper PMC7948426

Target: NES–Venus–mGsi (nuclear export sequence–Venus–mini G protein mGsi)
Assay: BRET with mini G protein V-mGsi (net BRET pH profile)
Details: read off a plot
[1] = 150 mM K+ (no Na+), pH 6.5 point
[2] = 150 mM K+ (no Na+), pH 8.5 point

Substance	response [1] [netBRET]	response [2] [netBRET]	response (150 mM Na+, pH 6.5 point) [netBRET]	response (150 mM Na+, pH 8.5 point) [netBRET]
GPR68–Rluc8 (wild type) (from UniProt Q15743) D67N; D282N	0.0073	0.0037	0.006	0.0023
GPR65–Rluc8 (wild type) (from UniProt Q8IYL9) E142Q	0.063	0.052	0.06	0.034
GPR65–Rluc8 (wild type) (from UniProt Q8IYL9) D60N; D286N	0.033	0.019	0.032	0.02

Other lines, results leading:

response [1] [netBRET]	response [2] [netBRET]	response (150 mM Na+, pH 6.5 point) [netBRET]	response (150 mM Na+, pH 8.5 point) [netBRET]	Substance
0.032	0.023	0.032	0.013	GPR4–Rluc8 (wild type) (from UniProt P46093) E145Q
0.029	0.026	0.028	0.018	GPR68–Rluc8 (wild type) (from UniProt Q15743) E149Q
0.0057	0.0026	0.0068	0.0022	GPR4–Rluc8 (wild type) (from UniProt P46093) D63N; D282N
